Assay results taken from patent US20170368119A1, “METHODS AND COMPOSITIONS FOR TREATING C-MET ASSOCIATED CANCERS” (YEASTERN BIOTECH CO., LTD, priority 2014, published 2017).

B1: FIP-gmi: fungal immunomodulatory protein from Ganoderma microsporum, SEQ ID NO: 6 (protein, listed as Ganoderma microsporum)
chain: MSDTALIFTLAWNVKQLAFDYTPNWGRGRPSSFIDTVTFPTVLTDKAYTYRVVVSGKDLGVRPSYAVESDGSQKINFLEYNSGYGIADTNTIQVYVIDPDTGNNFIVAQWN
B2: FIP-vvo: fungal immunomodulatory protein from Volvariella volvacea, SEQ ID NO: 3 (protein, listed as Volvariella volvacea)
chain: STDLTQLLFFIAYNLQKVNFDYTPQWQRGNPSSYIDAVVFPRVLTNKAYQYRVVTGDKDLGIKPSYSVQADGSQKVNLLEYNGGYGVADTTTIKIYVVDPSNGNQYLIAQWK
B3: FIP-fve: fungal immunomodulatory protein from Flammulina veltipes, SEQ ID NO: 2 (protein)
chain: SATSLTFQLAYLVKKIDFDYTPNWGRGTPSSYIDNLTFPKVLTDKKYSYRVVVNGSDLGVESNFAVTPSGGQTINFLQYNKGYGVADTKTIQVFVVIPDTGNSEEYIIAEWKKT
modifications: Flammulina Velutipes

Experiments:
[1] = system: p-JNK, p-ERK, p-AKT, p-EGFR in HCC329; assay: immuno-blotting of signaling molecules, HCC329; assay type: cell-based, human; conditions: within 4 to 16 hours, data not shown
Text: To investigate the molecular mechanism of FIP-gts in suppression of tumor progression of HCCs, the effects of FIP-gts on the activity and/or quantity of the critical members present in c-Met dependent signaling pathway, including c-Met, phosphorylated c-Met (p-c-Met) and downstream effectors p-JNK and p-ERK, were examined in HCCs. […] Total proteins were harvested from the cells and subjected to immuno-blotting analysis using GAPDH as a loading control. Antibodies for p-c-Met, p-JNK, p-ERK and p-paxillin (S178), GAPDH and ERK were purchased from Santa Cruz Biotechnology (California, USA). The band intensities on the blots were quantified with Image J. Software. Relative band intensity of each molecule was calculated, taking the data of untreated HCC372 or HCC329 as 1.0.

[2] = system: HCC329; assay: wound healing migration assay, HCC329; assay type: cell-based, human
Description: The HCC cells were cultivated on 24-well plates accompanied with a wound healing culture insert until confluence followed by serum starvation of the cells for 24 hours and the culture insert were then removed. After appropriate treatments, pictures were taken under a phase contrast microscope at indicated times.
Cell numbers were counted, and the relative doubling times of the respective treated groups were determined by taking the data of the untreated group as 100%. […] Relative migration was analyzed quantitatively by taking the motility of untreated cells (Con) as 1.0.

[3] = system: HCC329; assay: HCC329 tumor development and metastasis in SCID mice model; assay type: in vivo; conditions: JNJ 0.5-2.0 nmole/g mouse, intraperitoneal twice a week, 2 months
Description: HCC329 cells (approximately 2×10^7) suspended in 100 μl Dulbecco's Modified Eagle Medium (DMEM; Gibco, Grand Island, N.Y., USA) were directly injected into the subserosa of the middle liver lobe of the SCID mice, followed by intraperitoneal administration twice a week with DMEM as a vehicle, vehicle-containing FIP-gts (4.0-20 μg/g mouse) or JNJ (0.5-2.0 nmole/g mouse).
The mice were sacrificed 2 months after injection. Tumor mass was measured and the occurrence of intrahepatic metastasis and/or extrahepatic metastasis was recorded. Nodules with diameter of more than 0.1-0.2 cm observed on the left or right lobes were recognized as secondary tumor foci. […] Extra-hepatic metastasis was defined to be the case where the tumors appearing in organs other than liver such as in intestine. During the animal experiment, the regulations relevant to the care and use of laboratory animals were followed. This was approved by the Institutional Animal Care and Use Committee (IACUC) in Tzu Chi University (No. of consent form: 102080).

[4] = system: HCC372; assay: wound healing migration assay, HCC372; assay type: cell-based, human; conditions: JNJ 26.5 nM, 48 hours
Description: The HCC cells were cultivated on 24-well plates accompanied with a wound healing culture insert until confluence followed by serum starvation of the cells for 24 hours and the culture insert were then removed. After appropriate treatments, pictures were taken under a phase contrast microscope at indicated times. Quantitative analysis of motility of the HCC cell lines described in Example 1 was performed by directly counting the cells migrating into the blanking area at 48 hours using Image J. Software available from the NIH website. In general, motilities of the mesenchymal HCCs were higher than those of the epithelial ones.
The most motile HCC cell lines identified in Example 2, namely HCC372 and HCC329, were employed for testing the molecular and cellular effects of FIP-gts on HCC, in comparison with those of JNJ-38877605 (abbreviated hereafter as JNJ), which is an ATP-competitive inhibitor for the catalytic activity of c-Met. In the cell proliferation assay, HCC329 and HCC372 cells were untreated or treated with FIP-gts (prepared in Example 4) at 0.5, 1.0 or 2.0 μg/ml for 72 hours. Cell numbers were counted, and the relative doubling times of the respective treated groups were determined by taking the data of the untreated group as 100%. […] Relative migration was analyzed quantitatively by taking the motility of untreated cells (Con) as 1.0. […]

[5] = system: HCC329; assay: MTT cell viability, HCC329; assay type: cell-based, human; conditions: 48 hours
Description: (§1) HCC372 and HCC329 cell lines established in Example 2 were cultured in 24-well plates at 1×10^5 cells/well in Dulbecco's Modified Eagle Medium (DMEM; Sigma, St. Louis, Mo., USA) supplemented with 1% heat-inactivated fetal bovine serum (FBS; Gibco, N.Y., USA) in the presence or absence of FIP-gmi, FIP-fve and FIP-vvo prepared in Example 4 at 1, 2.5 and 5 μg/ml for 48 hours. The supernatant was removed and 25 μl per well of 2.5 mg/ml MTT (3-[4,5-dimethylthiazol-2-yl]-2,5-dipheyltetrazolium bromide; Sigma Chemical Co., St. Louis, Mo., USA) in phosphate-buffered saline (PBS) was added. The plates were incubated at 37° C. for 1 hour to allow the transformation of MTT into water-insoluble formazan crystals. Then, the supernatant was removed and dimethyl sulfoxide (DMSO) was added to all wells and mixed thoroughly to dissolve the dark blue crystals. After a few minutes at room temperature to ensure that all crystals were totally dissolved, the plates were read at 570 nm. Relative survival rate was calculated by taking the number of untreated cells (Con) as 100%. The results are shown in FIGS. 6A and 6B, where the data were representative of 4 reproducible experiments.

[6] = system: HCC372; assay: MTT cell viability, HCC372; assay type: cell-based, human; conditions: 48 hours
Description: as §1

[7] = system: c-Met, p-c-Met and p-JNK in HCC372; assay: western blotting of c-Met dependent signaling (Example 10), HCC372; assay type: cell-based, human; conditions: HCC372 (HGFR-positive)
Description: To investigate the molecular mechanism of FIP-gts in suppression of tumor progression of HCCs, the effects of FIP-gts on the activity and/or quantity of the critical members present in c-Met dependent signaling pathway, including c-Met, phosphorylated c-Met (p-c-Met) and downstream effectors p-JNK and p-ERK, were examined in HCCs. HCC329 and HCC372 cells were treated with FIP-gts (2 μg/ml) for 4 or 24 hours. Total proteins were harvested from the cells and subjected to immuno-blotting analysis using GAPDH as a loading control. Antibodies for p-c-Met, p-JNK, p-ERK and p-paxillin (S178), GAPDH and ERK were purchased from Santa Cruz Biotechnology (California, USA). The band intensities on the blots were quantified with Image J. Software. Relative band intensity of each molecule was calculated, taking the data of untreated HCC372 or HCC329 as 1.0. The results were shown in FIGS. 5A and 5B, in which (**) (##) and (*) (#) represent statistical significance (p<0.005 and p<0.05, respectively, n=3) between the indicated inhibitor-treated sample and untreated HCC329 or HCC372 control group.
The experiments described in Example 7 were repeated, except that FIP-gts was replaced with FIP-gmi, FIP-fve and FIP-vvo for treating HCC329 and HCC372. […] In addition, since c-Met was not substantially expressed in HCC329, the inhibitory effects of FIP-gmi, FIP-fve and FIP-vvo on HCC329 must be exerted through blockage on a c-Met independent signaling, such as EGFR-dependent signaling pathway.

[8] = system: HCC372; assay: transwell migration assay, HCC372; assay type: cell-based, human; conditions: FIP-fve 10 μg/ml, 48 hours
Description: (§2) Further, the effects of the three FIPs on migration of both HCC cells were examined. HCC372 and HCC329 cells were seeded on a 24-well transwell migration insert (Nalge Nunc International Corp., Rochester, N.Y., USA) in a complete medium for 24 hours. After treatment with FIP-gmi (3 μg/ml), FIP-fve (10 μg/ml) and FIP-vvo (2.5 μg/ml) for 48 hours, cells that had migrated to the underside of the insert membrane were stained with 0.3% crystal violet. The cells on the topside of the insert membrane were rubbed with a cotton swab. The migrated cells on the underside were imaged using phase contrast microscopy with 200× magnification.

[9] = system: HCC329; assay: transwell migration assay, HCC329; assay type: cell-based, human; conditions: FIP-fve 10 μg/ml, 48 hours
Description: as §2

Row | Molecule | reduction of the level of p-JNK by EGFR inhibitors [1] [%] | suppression of cell migration by EGFR inhibitors ([2]; wound healing assays, data not shown) [%] | secondary tumors on liver lobes (intra-hepatic metastasis) [3] | tumor progression of HCC329 [3] | suppression of cell migration [4] [%] | suppression of cell migration ([2]; JNJ, 48 hours) [%] | suppression of growth (MTT) ([5]; 2.5 μg/ml) [%] | suppression of growth (MTT) ([5]; 5 μg/ml) [%] | suppression of growth (MTT) ([6]; 2.5 μg/ml) [%] | suppression of growth (MTT) ([6]; 5 μg/ml) [%] | effect on c-Met [7] | effect on p-JNK [7] | effect on p-c-Met [7] | suppression of cell migration (transwell) [8] | suppression of cell migration (transwell) [9]
1 | Cc1cc(C)c(/C=C2\C(=O)Nc3ccccc32)[nH]1 [SU5416, reference compound] | 30 | 80 |  |  |  |  |  |  |  |  |  |  |  |  | 
2 | Cn1cc(-c2ccc3nnc(C(F)(F)c4ccc5ncccc5c4)n3n2)cn1 [JNJ-38877605, reference compound] |  |  | secondary tumors were observed on left and right liver lobes | not prominent | 50 | 15 |  |  |  |  |  |  |  |  | 
3 | B1 |  |  |  |  |  |  | 23 | 94 | 23 | 96 | significantly suppressed | significantly suppressed | significantly suppressed |  | 
4 | B2 |  |  |  |  |  |  | 54 | 95 | 48 | 96 | significantly suppressed | significantly suppressed | significantly suppressed |  | 
5 | B3 |  |  |  |  |  |  | 18 | 22 | 13 | 13 | significantly suppressed | significantly suppressed | significantly suppressed | marginally suppressed | marginally suppressed
